Results: patent US10758526B2, “Combination therapies using agents that target tumor-associated stroma or tumor cells and other pathways” (BIOMED VALLEY DISCOVERIES, INC., priority 2014, dated 2020)

Experiments:
[1] = test system: HCT116 colorectal carcinoma xenograft; assay: Efficacy of TEM8 antibodies in the HCT116 colorectal carcinoma xenograft model; format: in vivo, mice; conditions: HCT116 Colon; M830 alone; IP, 3 times per week; treatment initiated at 60-80 mm^3
Description: Tumor cells were cultured in RPMI-1640 medium supplemented with 10% fetal bovine serum, 2 mM glutamine, 100 units/mL penicillin G sodium, 100 μg/mL streptomycin sulfate, and 25 μg/mL gentamicin. The tumor cells were grown in tissue culture flasks in a humidified incubator at 37° C., in an atmosphere of 5% CO2 and 95% air.
2.5×10^6 to 5×10^6 HCT116 tumor cells were injected subcutaneously into the flank of mice. Tumor weights were calculated following surgical removal. Treatment was initiated when tumor volume reached 60-80 mm^3. Dosing volume was 10 mL/kg (0.2 mL/20 g mouse).
TEM8 Ab (hIgG1) doses were 5 and 15 mg/kg, three times per week, for 3 weeks. Bevacizumab was dosed at 5 mg/kg, twice per week, for 3 weeks. FIG. 1B and FIG. 1D show mean tumor growth and percent body weight change for each group, respectively, over the time course of the study.

[2] = Pharmacokinetics of TEM8 antibodies in mouse, single dose; format: in vivo
Text: (§1) Tables 8 and 9 show pharmacokinetic properties of TEM8 antibodies according to the present invention in mouse for single dose (Table 8) and multiple dose (Table 9) treatments.

UACC melanoma cells = assay: TEM8 antibody efficacy in UACC melanoma model; format: in vivo, mice
Description: UACC melanoma cells were cultured and injected subcutaneously into mice. Treatment was initiated with a tumor volume of 50 mm^3, and treatment groups consisted of one of four TEM8 antibodies (M825, M830, M863, and M822), each dosed at 15 mg/kg, 3 times per week for 3-4 weeks.

[3] = test system: MC38 colon carcinoma liver metastasis; assay: Efficacy of M830 in MC38 colon carcinoma liver metastasis model; format: in vivo, C57BL/6 mice
Text: C57BL/6 mice were challenged with MC38 colon carcinoma liver metastasis by intrasplenic injections of cultured cells.

mTEM8-Fc = target: T1, mTEM8-Fc (Mus musculus, UniProt Q9CZ52); assay: Biocore affinity measurement of anti-TEM8 Fabs, mTEM8-Fc; format: binding
T1 construct: Fc
T1 sequence (Q9CZ52 31-319 limits assumed): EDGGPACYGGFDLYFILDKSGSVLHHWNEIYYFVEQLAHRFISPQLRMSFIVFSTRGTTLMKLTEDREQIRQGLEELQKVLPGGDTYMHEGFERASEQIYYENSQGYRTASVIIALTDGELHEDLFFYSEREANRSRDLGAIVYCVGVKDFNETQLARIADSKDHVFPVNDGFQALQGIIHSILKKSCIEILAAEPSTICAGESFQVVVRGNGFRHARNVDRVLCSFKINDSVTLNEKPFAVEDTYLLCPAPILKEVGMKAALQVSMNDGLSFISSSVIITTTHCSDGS

[4] = Pharmacokinetics of TEM8 antibodies in mouse, multiple dose; format: in vivo
Text: as §1

[5] = test system: H460 non-small cell lung carcinoma xenograft; assay: Efficacy of M830 in the H460 non-small cell lung carcinoma xenograft model; format: in vivo, athymic nude mice; conditions: for % Tumor Reduction vs. Vehicle at Day 21: 3 times per week; for % Tumor Reduction vs. combination partner at Day (#): Day 32
Description: Animals were monitored for regression responses.
The statistical tests were not adjusted for multiple comparisons.
Cultured H460 cells were harvested during exponential growth and resuspended in phosphate buffered saline at a concentration of 1×10^8 cells/mL. 1.0×10^7 tumor cells were injected subcutaneously into the flank of athymic nude mice. Animals were euthanized when tumors reached the pre-determined volume endpoint of 2000 mm^3 or on the final day (Day 88), whichever came first.

hTEM8-AP = target: T2, hTEM8-AP (Homo sapiens, UniProt Q9H6X2); assay: Biocore affinity measurement of anti-TEM8 Fabs, hTEM8-AP; format: binding
T2 sequence (Q9H6X2 33-321 limits assumed): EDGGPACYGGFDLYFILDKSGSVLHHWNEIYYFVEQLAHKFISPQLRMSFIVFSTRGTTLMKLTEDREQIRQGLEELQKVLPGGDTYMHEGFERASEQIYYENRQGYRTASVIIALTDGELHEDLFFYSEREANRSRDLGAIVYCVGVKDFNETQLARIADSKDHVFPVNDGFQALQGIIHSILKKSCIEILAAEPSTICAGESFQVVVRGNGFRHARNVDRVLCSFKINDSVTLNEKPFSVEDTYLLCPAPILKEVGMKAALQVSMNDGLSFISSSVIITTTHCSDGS

[6] = test system: DLD-1 colorectal adenocarcinoma xenograft; assay: Efficacy of M830 alone and in combination in the DLD-1 colorectal adenocarcinoma xenograft model; format: in vivo, mice; conditions: for % Tumor Reduction vs. Vehicle at Day 21 / % Tumor Reduction vs. combination partner at Day (#): DLD1 Colon; for % Tumor Reduction vs. Vehicle at Day 21: 3 times per week; for % Tumor Reduction vs. combination partner at Day (#): Day 21; for combination compared with any agent alone / efficacy against DLD-1 cancer cells in the xenograft model: first study
Description: Tumor weights were calculated following surgical removal. […] Irinotecan was given once per week at 60 mg/kg i.v. and bevacizumab was dosed at 5 mg/kg i.p., three times per week.
In a second study, treatment was initiated with a large tumor volume of approximately 170 mm^3. M830 alone or in combinations with bevacizumab, irinotecan, or both, was given as a loading dose of 20 mg/kg followed by 5 mg/kg three times per week. The doses of bevacizumab and irinotecan were the same as in the first study. An additional group received a combination of bevacizumab and irinotecan without the M830 antibody.

[7] = Group 7: M830 in combination with paclitaxel, n=10
[8] = H460 Lung, combination partner Paclitaxel
[9] = M830 15 mg/kg IP in combination with bevacizumab 5 mg/kg IP
[10] = M830 in combination with bevacizumab, n=10
[11] = combination of M830 and paclitaxel

B1: M830: TEM8 monoclonal antibody (hIgG1), VH SEQ ID NO:5 and VL SEQ ID NO:6 (antibody, V domains shown)
VH: EVQLVESGGGVVQPGRSVRLSCAASGFTFSTYTMHWVRQAPGKGLEWVAIISNDGSNKYYADPVRGRFTISRDNSKNTLYLQMNSLRAEDTAVYYCVRGSSWYRGNWFDPWGQGTLVTVSS
VL: DIQMTQSPSSLSASVGDRVTIACRASQTISRYLNWYQQKPGKAPKLLIYAASSLQSGVSSRFSGSGSGTEFTLTISSLQPEDFATYFCQQTYSPPITFGQGTRLEIKR
modifications: TEM830 mAb VH; TEM830 mAb VL
% Tumor Reduction vs. Vehicle at Day 21 [1]: 39.5%
AUCI ([2]; 5 mg/kg): 2242.485 µg·h/mL
AUCT ([2]; 5 mg/kg): 2242.286 µg·h/mL
CLF ([2]; 5 mg/kg): 2.23 mL/h/kg
CMAX ([2]; 5 mg/kg): 67500 ng/mL
HALF ([2]; 5 mg/kg): 8.54 h
KEL ([2]; 5 mg/kg): 0.0811 h⁻¹
TMAX ([2]; 5 mg/kg): 3 h
VZF ([2]; 5 mg/kg): 27.48 mL/kg
AUCI ([2]; 15 mg/kg): 10692.742 µg·h/mL
AUCT ([2]; 15 mg/kg): 10692.598 µg·h/mL
CLF ([2]; 15 mg/kg): 1.40 mL/h/kg
CMAX ([2]; 15 mg/kg): 203000 ng/mL
HALF ([2]; 15 mg/kg): 14.94 h
KEL ([2]; 15 mg/kg): 0.0464 h⁻¹
TMAX ([2]; 15 mg/kg): 3 h
VZF ([2]; 15 mg/kg): 30.24 mL/kg
slowing of tumor growth (UACC melanoma cells; 15 mg/kg, 3 times per week for 3-4 weeks, treatment initiated at 50 mm^3): effective at slowing tumor growth
% Tumor Reduction vs. Vehicle at Day 21 (UACC melanoma cells; UACC Melanoma, M830 alone, IP, 3 times per week, treatment initiated at about 50 mm^3): 65%
survival of mice ([3]; P=0.0001): significantly improved the survival
median survival rate ([3]; versus 11 days for vehicle treated mice): 17 days
ka (mTEM8-Fc): 774900 M⁻¹ s⁻¹
kd (mTEM8-Fc): 0.002901 s⁻¹
AUCI ([4]; 5 mg/kg): 4316.79 µg·h/mL
AUCT ([4]; 5 mg/kg): 4315.918 µg·h/mL
CLF ([4]; 5 mg/kg): 1.16 mL/h/kg
CMAX ([4]; 5 mg/kg): 86400 ng/mL
HALF ([4]; 5 mg/kg): 22.88 h
KEL ([4]; 5 mg/kg): 0.0303 h⁻¹
TMAX ([4]; 5 mg/kg): 3 h
VZF ([4]; 5 mg/kg): 38.24 mL/kg
AUCI ([4]; 15 mg/kg): 23053.875 µg·h/mL
AUCT ([4]; 15 mg/kg): 23052.853 µg·h/mL
CLF ([4]; 15 mg/kg): 0.65 mL/h/kg
CMAX ([4]; 15 mg/kg): 330000 ng/mL
HALF ([4]; 15 mg/kg): 18.70 h
KEL ([4]; 15 mg/kg): 0.0371 h⁻¹
TMAX ([4]; 15 mg/kg): 3 h
VZF ([4]; 15 mg/kg): 17.55 mL/kg
TGD ([5]; Group 7: M830 15 mg/kg IP in combination with paclitaxel 30 mg/kg IV, maximum possible TGD 65.2 days (286%) for the 88-day study): maximum TGD
regression responses ([5]; Group 7: M830 15 mg/kg IP in combination with paclitaxel 30 mg/kg IV, n=10): 90%
CRs (complete regressions) [5, 7]: seven
PRs (partial regressions) [5, 7]: two
TFS (tumor-free survivors) at study end [5, 7]: three
% Tumor Reduction vs. Vehicle at Day 21 ([5]; H460 Lung, M830 alone, IP): 62%
% Tumor Reduction vs. combination partner at Day (#) ([5]; H460 Lung, combination partner Bevacizumab): 58.5% (32)
% Tumor Reduction vs. Vehicle at Day 21 ([5]; H460 Lung, combination partner Bevacizumab, M830 IP): 94.5%
regression (in cell of % Tumor Reduction vs. Vehicle at Day 21) [5, 8]: −61%
% Tumor Reduction vs. combination partner at Day (#) [5, 8]: 94% (32)
% Tumor Reduction vs. Vehicle at Day 21 ([5]; H460 Lung, combination partner Paclitaxel, M830 IP, treatment initiated at 60-80 mm^3): > 100%
% TGD [5, 9]: 146%
TGD [5, 9]: 33.2 days
CRs (complete regressions) [5, 10]: 3
PR (partial regressions) [5, 10]: 1
TFS (tumor-free survivors) at study end [5, 10]: three
regression responses [5, 10]: 40%
rank of activity among regimens ([5]; M830 in combination with paclitaxel): most active treatment regimen tested
combination compared with either agent alone [5, 11]: more effective than either agent alone
efficacy against H460 cancer cells in the xenograft model [5, 11]: effective
ka (hTEM8-AP): 607100 M⁻¹ s⁻¹
kd (hTEM8-AP): 0.0009533 s⁻¹
% Tumor Reduction vs. Vehicle at Day 21 ([6]; M830 alone, IP): 68%
% Tumor Reduction vs. combination partner at Day (#) ([6]; combination partner Bevacizumab): 48% (21)
% Tumor Reduction vs. Vehicle at Day 21 ([6]; combination partner Bevacizumab, M830 IP): 86%
% Tumor Reduction vs. combination partner at Day (#) ([6]; combination partner Irinotecan): 53% (21)
% Tumor Reduction vs. Vehicle at Day 21 ([6]; combination partner Irinotecan, M830 IP, treatment initiated at about 50 mm^3): 86%
combination compared with any agent alone ([6]; combination M830/bevacizumab): more effective than any agent alone
efficacy against DLD-1 cancer cells in the xenograft model ([6]; combination M830/bevacizumab): effective
combination compared with any agent alone ([6]; combination M830/irinotecan): more effective than any agent alone
efficacy against DLD-1 cancer cells in the xenograft model ([6]; combination M830/irinotecan): effective
triple combination compared with M830/bevacizumab combination ([6]; second study, M830 with bevacizumab and irinotecan): did not outperform the M830/bevacizumab combination therapy
